The source of these data is patent publication US20090053138A1, “Stabilized Aptamers to Platelet Derived Growth Factor and their Use as Oncology Therapeutics” (priority 2002, published 2009).

Strand notation (5' to 3'): a small letter for the sugar, then the base; units joined by * are phosphorothioate-linked, units joined directly phosphodiester-linked; [ ] holds rarer units or linkages, { } end groups; capitals alone tell only the bases. r = 2'-OH (RNA); f = 2'-fluoro

Data set [1] addresses T1, PDGF-AA (Homo sapiens, UniProt P04085).
T1 construct: purchased R&D Systems
In words: 3T3 proliferation assay (PDGF-AA induced). The class given is cell-based. The following applies: aptamer 0-1 uM, PDGF-AA 50 ng/ml. As to the method: The assay was set up as previously described, using a titration of PDGF-AA aptamer (0-1 uM) against a constant concentration (50 ng/ml) of PDGF-AA protein (R&D Systems).

Data set [2] deals with PDGF-AA (rat) (Rattus norvegicus, UniProt P28576). Briefly: Dot blot binding assay, PDGF-AA rat. The following applies: in the presence of 0.1 mg/mL tRNA. As to the method: (§1) Dot blot binding assays were performed throughout the selection to monitor the protein binding affinity of the pool. Trace ^32P-labeled RNA was combined with PDGF-AA and incubated at room temperature for 30 min in 1×SHMCK plus 0.1 mg/ml tRNA for a final volume of 20 μl. The reaction was added to a dot blot apparatus (Schleicher and Schuell Minifold-1 Dot Blot, Acrylic), assembled (from top to bottom) with nitrocellulose, nylon, and gel blot membranes. RNA that is bound to protein is captured on the nitrocellulose filter, whereas the non-protein bound RNA is captured on the nylon filter. When a significant positive ratio of binding of RNA in the presence of PDGF-AA versus in the absence of PDGF-AA was seen, the pool was cloned using the TOPO TA cloning kit (Invitrogen, Carlsbad. CA) according to the manufacturer's instructions. The Round 10 pool template was cloned, and 17 sequences were obtained. Only five different sequences were seen, with two major families and one unique sequence (not of the two families). […] Clones with high affinity to PDGF-AA were prepped and screened for functionality in cell-based assays.

For data set [3], the target named is T2, PDGF-AA (human short form) (Homo sapiens, UniProt P04085).
T2 construct: purchased Roche Biomedical
In words: Dot blot binding assay, PDGF-AA human short form. The following applies: in the presence of 0.1 mg/mL tRNA. How it is done:
as §1

B1: ARX33P1.D2: PDGF-AA (short form) aptamer, 2′-fluoro pyrimidines (SEQ ID NO: 78) (nucleic acid)
chain: rGrGrGrArArArArGfCrGrArAfUfCrAfUrAfCrAfCrArArGrAfCfCrGrGrGrArAfCfUfCrGrGrAfUfUfCfUfUfCrGfCrAfUrGfUrGrGrAfUrGfCrGrAfUfCrArGfUrAfUrGfCfUfCfCrGfCfCrArGrArGrAfCfCrArAfCfCrGrArGrArA
As for B1, the “inhibition of PDGF-AA induced 3T3 cell proliferation” value (from here on “inhibition”) in data set [1] is “do inhibit PDGF-AA induced 3T3 cell proliferation, but are not very potent”. Moreover, the equilibrium dissociation constant (Kd) (as a rule, a measure of binding affinity in units of concentration) stood at 51.7 nM in data set [2] and 104 nM in data set [3].

B2: ARX33P1.E11: PDGF-AA selection clone, 2′-fluoro pyrimidines (SEQ ID NO: 81) (nucleic acid)
chain: rGrGrGrArArArArGfCrGrArAfUfCrAfUrAfCrAfCrArArGrArGrArGfUrGrGrArGrGrArGrGfUrAfUrGfUrAfUrGrGfUfUfUrGfUrGfCrGfUfCfUrGrGfUrGfCrGrGfUrGfCfUfCfCrGfCfCrArGrArGrAfCfCrArAfCfCrGrArGrArA
modifications: aptamer
Take B2: the “PDGF-AA (rat) Kd (nM)” value in data set [2] is “N.B”. Moreover, in data set [3], the “PDGF-AA (human short form) Kd (nM)” value is “N.B”.

B3: ARX33P1.D1: PDGF-AA selection clone, 2′-fluoro pyrimidines (SEQ ID NO: 77) (nucleic acid)
chain: rGrGrGrArArArArGfCrGrArAfUfCrAfUrAfCrAfCrArArGrAfUfCrGfCfCrArGrGrArGfCrArArArGfUfCrAfCrGrGrArGrGrArGfUrGrGrGrGrGfUrAfCrGrArAfUrGfCfUfCfCrGfCfCrArGrArGrAfCfCrArAfCfCrGrArGrArA
modifications: aptamer
Regarding B3, the “PDGF-AA (rat) Kd (nM)” value in data set [2] is “N.B”. Further, in data set [3], the “PDGF-AA (human short form) Kd (nM)” value is “N.B”.

B4: ARX33P1.E10: PDGF-AA (short form) aptamer, 2′-fluoro pyrimidines (SEQ ID NO: 80) (nucleic acid)
chain: rGrGrGrArArArArGfCrGrArAfUfCrAfUrAfCrAfCrArArGrAfCfCrGrGrArArAfCfUfCrGrGrAfUfUfCfUfUfCrGfCrAfUrGfUrGrGrAfUrGfCrGrAfUfCrArGfUrAfUrGfCfUfCfCrGfCfCrArGrArGrAfCfCrArAfCfCrGrArGrArA
As to B4, the “inhibition” value in data set [1] is given as “do inhibit PDGF-AA induced 3T3 cell proliferation, but are not very potent”. In addition, the Kd in data set [2] stood at 47.1 nM; in data set [3] it was 133 nM.

B5: ARX33P1.E5: PDGF-AA (short form) aptamer, 2′-fluoro pyrimidines (SEQ ID NO: 79) (nucleic acid)
chain: rGrGrGrArArArArGfCrGrArAfUfCrAfUrAfCrAfCrArArGrAfCfCrGrGrGrArAfCfUfCrGrGrAfUfUfCfUfUfCrAfCrAfUrGfUrGrGrAfUrGfUrGrAfUfCrArGfUrAfUrGfCfUfCfCrGfCfCrArGrArGrAfCfCrArAfCfCrGrArGrArA
B5: the “inhibition” value in data set [1] was “do inhibit PDGF-AA induced 3T3 cell proliferation, but are not very potent”. In addition, the Kd came out at 57.4 nM in data set [2] and 117 nM in data set [3].
